Results on one molecule are retold here after article PMC6166933 (2018).

Experiment [1] concerns the target T1, Recombinant human RO60 (human, UniProt P10155 1-538). In words: BLI; rRO60 917 nM. On the technique in general: Biolayer interferometry detects binding as a change in optical thickness at a sensor tip.
For experiment [2], the target named is T1, Recombinant human RO60. Description: BLI; rRO60 1833 nM.

T1 sequence (P10155 whole entry): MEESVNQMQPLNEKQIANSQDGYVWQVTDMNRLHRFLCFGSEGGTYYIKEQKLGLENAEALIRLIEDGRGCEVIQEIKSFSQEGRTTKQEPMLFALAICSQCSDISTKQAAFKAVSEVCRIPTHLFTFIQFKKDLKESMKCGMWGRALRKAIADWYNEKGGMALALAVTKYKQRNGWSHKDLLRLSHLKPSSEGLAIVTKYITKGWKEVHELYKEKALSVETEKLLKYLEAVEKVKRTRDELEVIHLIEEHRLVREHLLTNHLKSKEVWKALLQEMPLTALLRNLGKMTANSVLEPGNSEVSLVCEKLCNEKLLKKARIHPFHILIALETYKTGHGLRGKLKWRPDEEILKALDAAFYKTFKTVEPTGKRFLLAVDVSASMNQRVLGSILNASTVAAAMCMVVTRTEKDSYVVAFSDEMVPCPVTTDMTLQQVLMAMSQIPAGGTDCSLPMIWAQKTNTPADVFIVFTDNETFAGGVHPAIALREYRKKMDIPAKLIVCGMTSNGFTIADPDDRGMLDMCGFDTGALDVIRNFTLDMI

B1: Recombinant GST-tagged human DDX6 (natural protein)
chain: MSTARTENPVIMGLSSQNGQLRGPVKPTGGPGGGGTQTQQQMNQLKNTNTINNGTQQQAQSMTTTIKPGDDWKKTLKLPPKDLRIKTSDVTSTKGNEFEDYCLKRELLMGIFEMGWEKPSPIQEESIPIALSGRDILARAKNGTGKSGAYLIPLLERLDLKKDNIQAMVIVPTRELALQVSQICIQVSKHMGGAKVMATTGGTNLRDDIMRLDDTVHVVIATPGRILDLIKKGVAKVDHVQMIVLDEADKLLSQDFVQIMEDIILTLPKNRQILLYSATFPLSVQKFMNSHLQKPYEINLMEELTLKGVTQYYAYVTERQKVHCLNTLFSRLQINQSIIFCNSSQRVELLAKKISQLGYSCFYIHAKMRQEHRNRVFHDFRNGLCRNLVCTDLFTRGIDIQAVNVVINFDFPKLAETYLHRIGRSGRFGHLGLAINLITYDDRFNLKSIEEQLGTEIKPIPSNIDKSLYVAEYHSEPVEDEKP
A word on the koff: it is the first-order rate constant of dissociation. In the case of B1, the koff was determined as 0.0046 s⁻¹ in the experiment with Recombinant human RO60 [1] and 0.0062 s⁻¹ with Recombinant human RO60 [2].
